The text below walks through data of patent publication US20220064286A1 (Genentech, published 2022).

As usually defined, the koff is the rate constant with which the complex falls apart. The kon is the rate constant with which the complex forms. As a reminder, the EC50 is the concentration at which the effect is half-maximal. In general, IC50 refers to the midpoint of a concentration-inhibition curve. Usually EC50 (read off the curve) stands for the concentration at which the effect is half-maximal.

The target of assay [1] is T1, human TIGIT protein (human, UniProt Q495A1 22-141, limits assumed).
T1 construct: Recombinant protein (Genentech) used in ELISA screening and as SPR analyte; also called TIGIT antigen
T1 sequence: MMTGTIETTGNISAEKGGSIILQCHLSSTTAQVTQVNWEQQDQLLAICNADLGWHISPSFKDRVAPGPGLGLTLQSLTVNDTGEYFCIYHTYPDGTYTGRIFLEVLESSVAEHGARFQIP
Kind of assay: SPR, captured mAb. (In general: In SPR one partner is held on a chip, and binding of the other changes the refractive index at the surface.)

Assay [2] concerns the target T2, cynomolgus monkey (cyno) TIGIT protein (cynomolgus monkey, UniProt A0A7N9I9V4 89-209). Kind of assay: SPR, captured mAb.
The target in assay [3] is T1, human TIGIT protein. Kind of assay: SPR, bivalent affinity.
Assay [4] addresses T2, cynomolgus monkey (cyno) TIGIT protein. The experiment in a line: SPR, bivalent affinity.
In assay [5] the target is T1, human TIGIT protein. Kind of assay: SPR, monovalent affinity.
In assay [6] the target is T2, cynomolgus monkey (cyno) TIGIT protein. The experiment in a line: SPR, monovalent affinity.
Assay [7] addresses T3, human TIGIT on activated human primary T cells (human, UniProt Q495A1 22-244).
T3 construct: also called Human T cell
T3 sequence: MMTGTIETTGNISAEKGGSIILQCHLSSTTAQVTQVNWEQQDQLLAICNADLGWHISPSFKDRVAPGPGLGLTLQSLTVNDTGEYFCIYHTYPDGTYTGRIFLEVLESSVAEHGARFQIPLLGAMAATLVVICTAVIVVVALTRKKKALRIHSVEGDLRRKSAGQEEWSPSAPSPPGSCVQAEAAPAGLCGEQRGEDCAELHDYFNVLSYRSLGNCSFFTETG
Kind of assay: FACS, activated human T cells. The procedure: The OMT- and SD-derived anti-TIGIT clones were also tested for binding to human primary T cells by FACS analysis. Human PBMC were activated for with plate-bound anti-CD3 (5 μg/ml) and soluble anti-CD28 (2 μg/ml) for 2 days as described in Yu et al. Nature Immunology. 10: 48-57, 2009, which is incorporated herein by reference in its entirety. Cells were then washed and incubated with incubated with each anti-TIGIT antibody at the indicated concentrations and then detected via a FITC-labeled anti-hIgG antibody. Cells were also stained with anti-CD4, anti-CD8, and anti-CD25 (BD bioscience). Human CD4+(CD25+CD4+) and human CD8+(CD25+CD8+) T cells were assessed for binding by the anti-TIGIT clones by FACS. All samples were acquired on LSR-II or LSR-Fortessa instruments (BD Biosciences) and analyzed using FlowJo software (Treestar).
(Flow cytometry measures light scatter and fluorescence of single cells or particles in a stream.)

Assay [8] has as its target T4, full-length human TIGIT on CHO cells (human, UniProt Q495A1 22-244).
T4 construct: also called CHO-hTIGIT; hu TIGIT
T4 sequence: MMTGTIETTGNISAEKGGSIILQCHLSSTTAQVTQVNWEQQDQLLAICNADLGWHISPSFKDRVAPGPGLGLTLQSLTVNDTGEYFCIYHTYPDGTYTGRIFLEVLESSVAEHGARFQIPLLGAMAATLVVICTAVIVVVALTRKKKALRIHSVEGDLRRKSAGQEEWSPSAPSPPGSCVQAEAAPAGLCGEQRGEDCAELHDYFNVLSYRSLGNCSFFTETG
The experiment in a line: FACS, CHO cells expressing TIGIT.

Assay [9] addresses T4, full-length human TIGIT on CHO cells. The experiment in a line: FACS, PVR-Fc on CHO-TIGIT cells; competitor PVR-Fc. How it is done: (§1) These studies were further validated in CHO-TIGIT PVR blocking experiments in which TIGIT-expressing CHO cells were incubated with labeled PVR-Fc fusion protein in the presence of anti-TIGIT antibody or an human IgG1 control (FIG. 4A).
Assay [10] has as its target T5, cynomolgus TIGIT on CHO cells (cynomolgus monkey, UniProt A0A7N9I9V4 89-312).
T5 construct: whole, on cells; also called CHO-cyTIGIT; cyTIGIT
Kind of assay: FACS on CHO cells expressing cyno TIGIT, FITC anti-hIgG detection. The procedure:
Additional in vitro binding studies of the OMT- and SD-derived anti-TIGIT antibody clones were conducted. The OMT- and SD-derived anti-TIGIT clones were tested for binding to human and cyno TIGIT expressed on the surface of CHO cells by FACS analysis. CHO cells were transfected with full-length human TIGIT (CHO-hTIGIT) or cynomologous TIGIT (CHO-cyTIGIT). The TIGIT-expressing CHO cells were incubated with each anti-TIGIT antibody at the indicated concentrations and then detected via a FITC-labeled anti-hIgG antibody (see FIG. 1A) using standard methods. The results, shown in Table 6 and FIGS. 1B-1E, corroborate the results from the BIACORE™ analysis, described above.

Assay [11] deals with T5, cynomolgus TIGIT on CHO cells. Kind of assay: FACS blocking assay: labelled PVR-Fc (blocked ligand) on CHO cells expressing cyno TIGIT. The procedure:
as §1

The target of assay [12] is T6, hTIGIT mutant H111A (human, UniProt Q495A1).
T6 sequence (TIGIT, looked up): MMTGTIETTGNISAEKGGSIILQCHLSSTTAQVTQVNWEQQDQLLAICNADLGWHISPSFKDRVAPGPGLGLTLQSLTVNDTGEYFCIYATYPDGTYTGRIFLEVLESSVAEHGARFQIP
Kind of assay: SPR (BIACORE), N=2.

Assay [13] has as its target T7, hTIGIT mutant Y113A (human, UniProt Q495A1).
T7 sequence (TIGIT, looked up): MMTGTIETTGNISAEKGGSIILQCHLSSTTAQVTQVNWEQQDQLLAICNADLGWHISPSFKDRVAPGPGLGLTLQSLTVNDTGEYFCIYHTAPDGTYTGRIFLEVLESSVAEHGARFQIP
The experiment in a line: SPR (BIACORE), N=2.

Assay [14] addresses T8, hTIGIT mutant T117A (human, UniProt Q495A1).
T8 sequence (TIGIT, looked up): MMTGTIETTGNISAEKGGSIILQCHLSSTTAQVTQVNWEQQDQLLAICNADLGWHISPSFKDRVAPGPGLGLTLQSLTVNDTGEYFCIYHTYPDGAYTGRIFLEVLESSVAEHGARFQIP
Kind of assay: SPR (BIACORE), N=2.

The target in assay [15] is T9, hTIGIT mutant Q53A (human, UniProt Q495A1).
T9 sequence (TIGIT, looked up): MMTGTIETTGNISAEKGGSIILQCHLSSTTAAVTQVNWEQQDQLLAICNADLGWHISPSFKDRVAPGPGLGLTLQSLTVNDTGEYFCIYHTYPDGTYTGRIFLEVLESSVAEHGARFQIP
The experiment in a line: SPR (BIACORE), N=2.

In assay [16] the target is T10, hTIGIT mutant Q56A (human, UniProt Q495A1).
T10 sequence (TIGIT, looked up): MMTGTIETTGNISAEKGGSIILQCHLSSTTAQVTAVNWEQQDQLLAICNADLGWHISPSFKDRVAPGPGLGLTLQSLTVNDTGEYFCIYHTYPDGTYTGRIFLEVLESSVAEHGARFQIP
Kind of assay: SPR (BIACORE), N=2.

The target in assay [17] is T11, hTIGIT mutant E60A (human, UniProt Q495A1).
T11 sequence (TIGIT, looked up): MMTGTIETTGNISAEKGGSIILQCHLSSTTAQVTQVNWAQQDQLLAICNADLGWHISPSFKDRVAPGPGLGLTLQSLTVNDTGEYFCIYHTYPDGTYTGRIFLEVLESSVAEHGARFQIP
The experiment in a line: SPR (BIACORE), N=2.

Assay [18] deals with T12, hTIGIT mutant L65A (human, UniProt Q495A1).
T12 sequence (TIGIT, looked up): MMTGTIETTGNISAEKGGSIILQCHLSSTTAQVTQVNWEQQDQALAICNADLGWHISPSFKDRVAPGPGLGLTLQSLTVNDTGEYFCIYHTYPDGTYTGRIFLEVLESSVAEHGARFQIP
Kind of assay: SPR (BIACORE), N=2.

In assay [19] the target is T13, hTIGIT mutant I68A (human, UniProt Q495A1).
T13 sequence (TIGIT, looked up): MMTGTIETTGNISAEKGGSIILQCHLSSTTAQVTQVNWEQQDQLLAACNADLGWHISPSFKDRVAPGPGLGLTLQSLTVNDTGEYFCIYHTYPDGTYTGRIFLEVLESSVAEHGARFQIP
The experiment in a line: SPR (BIACORE), N=2.

In assay [20] the target is T14, hTIGIT mutant N70A (human, UniProt Q495A1).
T14 sequence (TIGIT, looked up): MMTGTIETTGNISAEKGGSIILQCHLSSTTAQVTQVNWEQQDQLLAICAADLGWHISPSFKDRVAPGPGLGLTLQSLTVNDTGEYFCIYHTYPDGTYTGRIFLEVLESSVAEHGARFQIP
The experiment in a line: SPR (BIACORE), N=2.

Assay [21] addresses T1, human TIGIT protein. The experiment in a line: SPR (BIACORE), N=2.
Assay [22] has as its target T6, hTIGIT mutant H111A. The experiment in a line: SPR (BIACORE) KD normalized to WT, N=2.
Assay [23] deals with T7, hTIGIT mutant Y113A. The experiment in a line: SPR (BIACORE) KD normalized to WT, N=2.
Assay [24] concerns the target T8, hTIGIT mutant T117A. Kind of assay: SPR (BIACORE) KD normalized to WT, N=2.
In assay [25] the target is T9, hTIGIT mutant Q53A. The experiment in a line: SPR (BIACORE) KD normalized to WT, N=2.
Assay [26] has as its target T10, hTIGIT mutant Q56A. Kind of assay: SPR (BIACORE) KD normalized to WT, N=2.
For assay [27], the target named is T11, hTIGIT mutant E60A. The experiment in a line: SPR (BIACORE) KD normalized to WT, N=2.
Assay [28] addresses T12, hTIGIT mutant L65A. The experiment in a line: SPR (BIACORE) KD normalized to WT, N=2.
Assay [29] addresses T13, hTIGIT mutant I68A. The experiment in a line: SPR (BIACORE) KD normalized to WT, N=2.
The target in assay [30] is T14, hTIGIT mutant N70A. The experiment in a line: SPR (BIACORE) KD normalized to WT, N=2.
The target in assay [31] is T1, human TIGIT protein. Kind of assay: SPR (BIACORE) KD normalized to WT, N=2.

T2 sequence (A0A7N9I9V4 entry or part of it): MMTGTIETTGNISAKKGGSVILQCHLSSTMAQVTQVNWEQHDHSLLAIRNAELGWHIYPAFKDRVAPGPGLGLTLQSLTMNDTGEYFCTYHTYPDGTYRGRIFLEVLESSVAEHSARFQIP
T5 sequence (A0A7N9I9V4 entry or part of it): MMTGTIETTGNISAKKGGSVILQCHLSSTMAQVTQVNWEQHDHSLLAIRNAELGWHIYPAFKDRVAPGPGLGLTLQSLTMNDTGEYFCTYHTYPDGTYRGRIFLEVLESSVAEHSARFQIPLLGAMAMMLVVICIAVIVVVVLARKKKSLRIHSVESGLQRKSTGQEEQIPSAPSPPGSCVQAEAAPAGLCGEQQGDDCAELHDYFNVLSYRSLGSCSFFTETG

B1: rat7E7 (antibody, V domains shown)
VH: EVQLQQSGPELQRPGASVKLSCKATGYTFTEYSIYWVKQRPKQSLEIIGRIDPKNGRTYYVDKFKNRATLTADTSSNTAYMQLSSLTSEDTATYFCTRIYGFYFDFWGQGVMVTASS
VL: NIHLTQSPSLLSASVGDRVTLSCKGSQNVNKYLVWYQQKLGEAPKLLIYNTDNLQSGIPSRFSGSGSGTDYTLTISSLQPEDAATYFCYQYNNGFTFGSGTKLEIK
notes: SD rat-derived; rat V domains as FR/HVR pieces; also called 1.7E7; Chimeric 1.7E7
Take B1: the Kd in assay [1] is 0.03 nM; in assay [2], 0.07 nM; in [3], ≤ 0.004 nM; in [4], ≤ 0.009 nM; in [5], ≤ 0.018 nM; in assay [6], 0.067 nM. Moreover, the koff came to 1.8e-05 s⁻¹ in [1] and 2.7e-05 s⁻¹ in assay [2]. Besides, the results for the kon in [1] and in assay [2] were 568000 M⁻¹ s⁻¹ and 399000 M⁻¹ s⁻¹, respectively. For the same molecule, the figures for the EC50 in assay [7] and in assay [8] were 0.11 nM and 0.1 nM, respectively. In addition, in assay [9], the IC50 is 0.04 nM. Further, the “EC50 (read off the curve)” value in assay [10] was ~0.3 nM. Moreover, in assay [11], the “IC50 (read off the curve)” value was ~0.3 nM.

B2: h6B2.L2H5 (antibody, V domains shown)
VH: EVTLKESGPALVKPTQTLTLTCTFSGFSLSTYGMGVSWIRQPPGKALEWLASIWWNGNTYYNPSLKSRLTITKDTSKNQVVLTMTNMDPVDTATYYCAHTGGAVITWFAYWGQGTLVTVSS
VL: DIQMTQSPSSLSASVGDRVTITCKASQSVGKNIAWYQQKPGKAPKLLIYYASNRYTGVPSRFSGSGSGTDFTFTISSLQPEDIATYYCQHIYNSPYPFGQGTKVEIK
notes: Fully humanized version; FR/HVR pieces in order
With B2, the Kd in assay [1] amounted to 0.48 nM; in assay [2] it was 0.97 nM; in assay [12], 1.3 nM; in [13], 2.5 nM; in assay [14], 1.1 nM; in assay [15], 0.9 nM. Also, the Kd came to 1.3 nM in assay [16]; 2.4 nM in assay [17]; 3 nM in assay [18]; 11.5 nM in assay [19]; 2.8 nM in assay [20]; 0.7 nM in assay [21]. For the same molecule, the koff in [1] came out at 0.00222 s⁻¹; in assay [2], 0.00124 s⁻¹. The kon in [1] worked out at 4.65e+06 M⁻¹ s⁻¹; in assay [2] it was 1.28e+06 M⁻¹ s⁻¹. In addition, the “Binding affinity drop vs. WT” value in assay [22] came to 1.9 fold; in assay [23], 3.6 fold; in assay [24], 1.6 fold; in assay [25], 1.3 fold; in assay [26] it was 1.9 fold; in [27], 3.4 fold. The “Binding affinity drop vs. WT” value in assay [28] was found to be 4.3 fold; in assay [29], 16.4 fold; in assay [30], 4 fold; in assay [31], 1 fold.
